# Where “and” joins values, the source holds several entries; their conditions need not be identical. Equal values may be shown once. Read-outs that look alike come from different tables or passages of the source. Bridges are numbered along the chain shown (N, C = ends). Where no end group is shown, it is not given here. [ ]: non-standard residue; d: D form. Gla = N[C@@H](CC(C(=O)O)C(=O)O)C(=O)O
# T1: secPHEX (Homo sapiens, UniProt P78562)
# T1 construct: made in house; host or cells: LLC-PK1 cells (porcine kidney; ATCC No. CRL-1392), stably transfected; purified from culture medium
# T1 sequence (P78562 46-749): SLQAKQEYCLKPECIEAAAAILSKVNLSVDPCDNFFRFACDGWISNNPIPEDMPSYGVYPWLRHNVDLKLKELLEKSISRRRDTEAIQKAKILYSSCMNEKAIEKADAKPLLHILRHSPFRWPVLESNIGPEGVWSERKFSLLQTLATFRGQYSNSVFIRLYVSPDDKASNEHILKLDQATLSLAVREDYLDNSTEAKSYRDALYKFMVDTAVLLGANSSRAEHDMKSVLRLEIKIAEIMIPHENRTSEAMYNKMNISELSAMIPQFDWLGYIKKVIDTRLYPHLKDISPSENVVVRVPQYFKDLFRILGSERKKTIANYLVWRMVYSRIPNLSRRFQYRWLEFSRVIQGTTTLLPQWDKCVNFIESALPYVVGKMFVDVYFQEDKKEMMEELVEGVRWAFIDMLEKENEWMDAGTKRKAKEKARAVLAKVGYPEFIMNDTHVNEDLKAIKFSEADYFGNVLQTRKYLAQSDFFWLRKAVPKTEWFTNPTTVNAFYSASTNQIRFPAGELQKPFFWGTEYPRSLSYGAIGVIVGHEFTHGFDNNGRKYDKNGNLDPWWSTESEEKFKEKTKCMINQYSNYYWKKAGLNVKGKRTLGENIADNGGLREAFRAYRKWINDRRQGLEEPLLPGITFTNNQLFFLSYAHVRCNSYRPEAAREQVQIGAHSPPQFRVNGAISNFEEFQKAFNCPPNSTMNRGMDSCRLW
# T2: osteocalcin (Homo sapiens, UniProt P02818)
# T2 construct: The mature peptide is 49 amino acids long with 3 Gla residues and one difulfide bond; purchased Peptide Research Institute, Japan
# T2 sequence (P02818 52-100): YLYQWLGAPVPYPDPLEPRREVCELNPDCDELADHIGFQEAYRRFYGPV
# B1: secPHEX: soluble, secreted form of recombinant human PHEX zinc metallopeptidase produced in LLC-PK1 cells (protein, UniProt P78562 42-641, looked up)
# extracellular domain: QGLLSLQAKQEYCLKPECIEAAAAILSKVNLSVDPCDNFFRFACDGWISNNPIPEDMPSYGVYPWLRHNVDLKLKELLEKSISRRRDTEAIQKAKILYSSCMNEKAIEKADAKPLLHILRHSPFRWPVLESNIGPEGVWSERKFSLLQTLATFRGQYSNSVFIRLYVSPDDKASNEHILKLDQATLSLAVREDYLDNSTEAKSYRDALYKFMVDTAVLLGANSSRAEHDMKSVLRLEIKIAEIMIPHENRTSEAMYNKMNISELSAMIPQFDWLGYIKKVIDTRLYPHLKDISPSENVVVRVPQYFKDLFRILGSERKKTIANYLVWRMVYSRIPNLSRRFQYRWLEFSRVIQGTTTLLPQWDKCVNFIESALPYVVGKMFVDVYFQEDKKEMMEELVEGVRWAFIDMLEKENEWMDAGTKRKAKEKARAVLAKVGYPEFIMNDTHVNEDLKAIKFSEADYFGNVLQTRKYLAQSDFFWLRKAVPKTEWFTNPTTVNAFYSASTNQIRFPAGELQKPFFWGTEYPRSLSYGAIGVIVGHEFTHGFDNNGRKYDKNGNLDPWWSTESEEKFKEKTKCMINQYSNYYWKKAGLNVKGKRTLG
# modifications: extracellular domain
# notes: soluble, secreted form of recombinant human PHEX zinc metallopeptidase produced in LLC-PK1 cells
# B2: secPHEXE581V: inactive secPHEX protein bearing the mutation Glu 581 to Val (protein)
# chain: QGLLSLQAKQEYCLKPECIEAAAAILSKVNLSVDPCDNFFRFACDGWISNNPIPEDMPSYGVYPWLRHNVDLKLKELLEKSISRRRDTEAIQKAKILYSSCMNEKAIEKADAKPLLHILRHSPFRWPVLESNIGPEGVWSERKFSLLQTLATFRGQYSNSVFIRLYVSPDDKASNEHILKLDQATLSLAVREDYLDNSTEAKSYRDALYKFMVDTAVLLGANSSRAEHDMKSVLRLEIKIAEIMIPHENRTSEAMYNKMNISELSAMIPQFDWLGYIKKVIDTRLYPHLKDISPSENVVVRVPQYFKDLFRILGSERKKTIANYLVWRMVYSRIPNLSRRFQYRWLEFSRVIQGTTTLLPQWDKCVNFIESALPYVVGKMFVDVYFQEDKKEMMEELVEGVRWAFIDMLEKENEWMDAGTKRKAKEKARAVLAKVGYPEFIMNDTHVNEDLKAIKFSEADYFGNVLQTRKYLAQSDFFWLRKAVPKTEWFTNPTTVNAFYSASTNQIRFPAGELQKPFFWGTEYPRSLSYGAIGVIVGHVFTHGFDNNGRKYDKNGNLDPWWSTESEEKFKEKTKCMINQYSNYYWKKAGLNVKGKRTLG
# Columns and labels:
# secPHEX = target: T1, secPHEX; assay: secPHEX enzymatic assay: inhibition of PTHrP107-139 hydrolysis (RP-HPLC); assay type: biochemical
# Experimental: (§1) One μg of purified secPHEX or secPHEXE581V was incubated with 5 μg of peptide substrate for 30 min at 37° C. in a volume of 200 μl of 50 mM MES (2-(N-morpholino) ethanesulfonic acid) pH6.5, 150 mM NaCl. Peptide PTHrP107-139 (human origin and obtained from Bachem, Philadelphia, Pa., U.S.A. or Peninsula Laboratories, Belmont, Calif., U.S.A.), used as a substrate, was prepared as 1 μg/μl solutions also containing 1 μg/μl of the tripeptide Tyr-Gly-Gly. This latter peptide, which is not a PHEX substrate, was used as an internal standard. Peptide substrate AWLDSGV (Dr Gilles Lajoie, Waterloo Peptide Synthesis C2-360 University of Waterloo, Waterloo, ON Canada) (SEQ ID NO: 1) was digested with secPHEX in the same manner as described above for PTHrP107-139. To determine osteocalcin inhibitory potency on secPHEX activity, osteocalcin (Peptide Research Institute, Japan or E. coli-produced) was added to the reaction mixture to final concentrations varying from 10^−8 to 5×10^−4 M. To determine the effect of agents on the inhibitory activity of osteocalcin, the agents were added to a reaction mixture containing secPHEX, peptide substrate and 5×10^−6 M osteocalcin. […] Following the incubation period, hydrolysis was stopped by the addition of EDTA to a final concentration of 5 mM. The potentiating agent was identified when the intact substrate was determined to be present in a […] concentration than in the absence of the potentiating agent (see FIG. 6). Results were quantified by comparing, after normalization for the amounts of peptide Tyr-Gly-Gly present in the samples, the areas under the peaks of the substrate.
# Identification and quantification of the enzymatic activity of secPHEX on the PTHrP107-139 peptide was performed by reverse phase high performance liquid chromatography (RP-HPLC) on a C18 μBondapak analytical column (Waters, Mississauga, ON, Canada) with a UV detector set at 214 nm. Peptides were resolved with a linear gradient of 5% B to 85% B in 45 min at the flow rate of 0.4 ml/min [mobile phase A=0.1% trifluoroacetic acid; mobile phase B=80% acetonitrile (CH3CN), 0.1% trifluoroacetic acid].
# osteocalcin = target: T2, osteocalcin; assay: Effect of Ca2+ on the inhibitory action of osteocalcin on secPHEX; assay type: biochemical
# Experimental: One μg of purified secPHEX or secPHEXE581V was incubated with 5 μg of peptide substrate for 30 min at 37° C. in a volume of 200 μl of 50 mM MES (2-(N-morpholino) ethanesulfonic acid) pH6.5, 150 mM NaCl. Peptide PTHrP107-139 (human origin and obtained from Bachem, Philadelphia, Pa., U.S.A. or Peninsula Laboratories, Belmont, Calif., U.S.A.), used as a substrate, was prepared as 1 μg/μl solutions also containing 1 μg/μl of the tripeptide Tyr-Gly-Gly. This latter peptide, which is not a PHEX substrate, was used as an internal standard. Peptide substrate AWLDSGV (Dr Gilles Lajoie, Waterloo Peptide Synthesis C2-360 University of Waterloo, Waterloo, ON Canada) (SEQ ID NO: 1) was digested with secPHEX in the same manner as described above for PTHrP107-139. […] The potentiating agent was identified when the intact substrate was determined to be present in a […] concentration than in the absence of the potentiating agent (see FIG. 6). Results were quantified by comparing, after normalization for the amounts of peptide Tyr-Gly-Gly present in the samples, the areas under the peaks of the substrate.
# (§2) Identification and quantification of the enzymatic activity of secPHEX on the PTHrP107-139 peptide was performed by reverse phase high performance liquid chromatography (RP-HPLC) on a C18 μBondapak analytical column (Waters, Mississauga, ON, Canada) with a UV detector set at 214 nm. […]
# [1] = Precipitation of secPHEX in low-salt solutions; assay type: physicochemical; conditions: NaCl added to reaction mixture
# Experimental: SecPHEX activity was assayed in 50 mM MES pH 6.5 containing 150 mM NaCl (26). Sodium chloride was added to the reaction mixture because we observed that secPHEX precipitated out in solutions containing less than 50 mM salt.
# PTHrP107-139 = assay: secPHEX activity: digestion of PTHrP107-139 (RP-HPLC, MALDI-Tof); assay type: biochemical, human
# Experimental: as §1, §2
# The pH optimum for the reaction was determined by progressively increasing the pH of the MES buffer from 5.0 to 7.0 or of a Tris buffer (50 mM Tris.HCl, 150 mM NaCl) from 7.0 to 9.0.
# Hyp male mice [2] = assay: secPHEX injection to Hyp mice, daily for 4 days: serum phosphate; assay type: in vivo, mouse; design: serum phosphate, Day 0 / serum phosphate, Day 4: unit not given here; conditions: for serum phosphate, Day 0 / serum phosphate, Day 4: individual Hyp mice; for serum phosphate, Day 0: baseline before treatment
# Experimental: Purified secPHEX solubilized in 1 mM phosphate pH 7.4, 150 mM NaCl, was administered intravenously daily for 4 or 14 consecutive days through the subclavian vein Hyp males (12 weeks of age). The same number of aged-matched Hyp male mice were treated with vehicle only as controls. […]
# Hyp male mice [3] = assay: secPHEX injection to Hyp mice, daily for 14 days: serum alkaline phosphatase and phosphate; assay type: in vivo, mouse
# Experimental: Purified secPHEX solubilized in 1 mM phosphate pH 7.4, 150 mM NaCl, was administered intravenously daily for 4 or 14 consecutive days through the subclavian vein Hyp males (12 weeks of age). The same number of aged-matched Hyp male mice were treated with vehicle only as controls.
# In a similar experiment, Hyp male mice where injected with daily doses of 1 mg/kg secPHEX for 14 days.
# [4] = 1 mM added to the reaction mixture
# [5] = PTHrP107-139 substrate, inhibitor varied from 0.1 to 50 mM, read-out: concentration giving 50% inhibition of secPHEX activity
# [6] = 1 mg/kg daily, individual Hyp mice
molecule,measurement,setting,value
"osteocalcin: non-collagenous bone protein, mature peptide 49 amino acids with 3 Gla residues; extracted from human bones (YLYQWLGAPVPYPDPL[Gla]PRR[Gla]VC[Gla]LNPDCDELADHIGFQEAYRRFYGPV; disulfide 23-29 (inferred))",inhibition of secPHEX activity,secPHEX; 5×10^−6 M osteocalcin,approximately 75%
same,degradation by secPHEX,secPHEX; data not shown,not degraded
same,IC50,"secPHEX; secPHEX-mediated PTHrP107-139 hydrolysis, FIG. 6A, read-out: concentration giving fifty percent inhibition of secPHEX activity",0.0036 mM
O=C(O)CN(CCN(CC(=O)O)CC(=O)O)CC(=O)O [EDTA],inhibition of secPHEX activity,secPHEX; [4],fully inhibited
E. coli-produced osteocalcin: human osteocalcin without Gla residues made in E. coli (pGEX-OST vector) (YLYQWLGAPVPYPDPLEPRREVCELNPDCDELADHIGFQEAYRRFYGPV),inhibitory potency on secPHEX compared to osteocalcin extracted from bones,secPHEX; FIG. 7A,similar
same,modulation of inhibitory activity on secPHEX by Ca2+,osteocalcin; FIG. 7B,not modulated
O=P(O)(O)O [Pi],IC50,secPHEX; [5],3.5 mM
"[Ca+2] [Ca^2+, CaCl2, reference compound]",effect on secPHEX activity in the absence of osteocalcin,secPHEX; data not shown,no effect
same,EC50,"osteocalcin; CaCl2 varied from 10^−6 to 10^−2 M, constant osteocalcin 2×10^−6M (FIG. 6B), read-out: Ca2+ concentration necessary to reduce the inhibitory potency of osteocalcin by 50%",5 mM
"c1cnc2c(c1)ccc1cccnc12 [1,10-phenanthroline]",inhibition of secPHEX activity,secPHEX; [4],fully inhibited
O=P(O)(O)OP(=O)(O)O [pyrophosphate],IC50,secPHEX; [5],2.5 mM
B1,salt concentration below which secPHEX precipitated out,[1],less than 50 mM
same,pH of maximum activity,"PTHrP107-139; MES buffer pH 5.0 to 7.0, Tris buffer pH 7.0 to 9.0",6.5
same,cleavage site specificity in PTHrP107-139,PTHrP107-139; fragments identified by MALDI-Tof,amino-terminus of aspartate residues
same,effect on serum phosphate,"Hyp male mice [2]; daily injection over 4 days, as a function of dose, Student t test p<0.05",decreased
same,"serum phosphate, Day 0","Hyp male mice [2]; dose 1 mg/kg group, 1 mg/kg",1.68 and 1.25 and 1.36 and 1.37
same,"serum phosphate, Day 4","Hyp male mice [2]; dose 1 mg/kg i.v. daily for 4 days, 1 mg/kg",1.23 and 1.06 and 1.18 and 1.31
same,"serum phosphate, Day 0","Hyp male mice [2]; dose 10 mg/kg group, 10 mg/kg",1.16 and 1.12 and 1.39 and 1.14
same,"serum phosphate, Day 4","Hyp male mice [2]; dose 10 mg/kg i.v. daily for 4 days, 10 mg/kg",0.92 and 0.82 and 0.89 and 0.87
same,serum phosphate levels at the 7th and 14th day,Hyp male mice [3]; 1 mg/kg daily for 14 days,same level as pretreatment
same,effect on serum alkaline phosphatase levels,"Hyp male mice [3]; 1 mg/kg daily for 14 days, normal levels 71+/−11 units, Student t test p<0.05",significantly reduced toward normal levels
same,"alkaline phosphatase level, 7th day of treatment",Hyp male mice [3]; [6],183 units and 235 units and 233 units and 199 units and 246 units
same,"alkaline phosphatase level, 14th day of treatment",Hyp male mice [3]; [6],196 units (2×) and 208 units and 193 units and 218 units
same,"alkaline phosphatase level, pre-treatment","Hyp male mice [3]; 1 mg/kg group, individual Hyp mice, 7 day pre-treatment",292 units and 357 units and 377 units and 348 units and 323 units
B2,degradation of PTHrP107-139 (in words),"PTHrP107-139; similar conditions as secPHEX, FIG. 3D",failed to degrade
